# Test results taken from publication doi:10.1101/2021.07.08.451649 (bioRxiv, 2021).
# Target: SARS-CoV-2 HexaPro spike glycoprotein (SARS-CoV-2, ancestral (Wuhan-Hu-1), …, stabilised)
# Assay: cryo-EM structure
binder,measurement,value
"PVI.V6-14 Fab (Fab, V domains shown) VH: QVQLQESGPGLVKPSETLSLTCTVSGGSISSSSYYWGWIRQPPGKGLEWIGSIYYSGSTYYNPSLKSRVTISVDTSKNQFSLKLSSVTAADTAVYYCARCRPEYYFGSGSYLDFDY VL: DIQMTQSPSSVSASVGDRVTITCRASQGISSWLAWYQQKPGKAPKLLIYAASSLQSGVPSRFSGSGSGTDFTLTISSLQPEDFATYYCQQANSFPLTFGGGTKVEIK",stoichiometry N,2 Fabs per spike trimer
